Assay results published in US10272233B2, “Method to fabricate polymeric microneedles” (National University of Singapore, priority 2012, dated 2019).
One block for each compound: values may come before it.

How the values were obtained:
[1] = Fluorescence spectroscopy, tertiary structure stability of BSA in microneedles; assay type: physicochemical; conditions: excitation 280 nm
Description: In order to evaluate the tertiary structural changes in the protein conformation, fluorescence spectra was analyzed for protein samples. […] The emission spectra were studied in the range of 300-400 nm at a fixed excitation wavelength of 280 nm using a Hitachi F-7000 fluorescence spectrophotometer. The fluorescence intensities were plotted against wavelength as an average of triplicate measurements.

[2] = In vitro release of rhodamine B from microneedle arrays in 1×PBS at 37° C.; assay type: physicochemical; conditions: within the first hour, rhodamine B encapsulated in PEGDA microneedles and backing layer
Description: Encapsulation of a Model Drug: Imaging and In Vitro Release Rhodamine B was dissolved in the prepolymer solution at a concentration of 0.09, 0.17 and 0.44 weight %, respectively. The drug-laden microneedle samples were imaged using a fluorescence stereomicroscope (Nikon, Japan). The amount of drug encapsulated in the microneedles was calculated from the percent weight of the drugs in the prepolymer solution and the weight of fabricated microneedles. Selective incorporation of rhodamine B in the backing layer or microneedle shafts was made possible by using the prepolymer solutions containing the model drug to fabricate the backing layer or microneedles respectively. In vitro release of rhodamine B was tested by suspending fabricated microneedle arrays in 15 ml of 1×PBS, at 37° C. and sampled at regular intervals. At each sampling point, the whole 15 ml of release medium was withdrawn and replaced with 15 ml of fresh 1×PBS. The samples were stored at 4° C. before analysis. The amount released was quantified by measuring rhodamine B fluorescence at excitation and emission wavelengths of 554 nm and 586 nm, respectively, with a Tecan 2000 microplate reader (Tecan, Austria). In Vitro Permeation Through Rat Skin

[3] = cited from earlier work
[4] = Collagen permeation through microneedle pretreated rat skin (confocal fluorescence); assay type: in vitro ADME
Description: Microneedles of the longest range of length were inserted into excised rat abdominal skin. Hair and fat were removed as mentioned previously. The skin was fully stretched on a thin layer of PDMS to mimic tissue-like mechanical support. A force of 10 N was applied using the digital force gauge (Dillon GL, USA) for 2 minutes. Bovine skin collagen type 1, FITC conjugate (MW=300 kDa) of concentrations 0.025, 0.050 and 0.075% w/v was obtained by diluting the stock collagen solution (0.1% w/v) withappropriate amount of 0.1 M Tris-HCl buffer (pH 7.8) containing 0.4 M NaCl, 10 mM CaCl2 and 0.25 M glucose. NaCl and CaCl2 aid in stabilizing the collagen molecules and glucose is added to prevent gelation of the collagen fibers. Each collagen concentration was applied to separate skin samples at the area of insertion. The time of contact between the collagen solution and the skin was kept constant at 4 hours at room temperature, after which excess collagen on the skin surface was removed using Kimwipe (Kimberly-Clark, Roswell, Ga.). The degree of permeation of collagen through the skin was quantified by using the A-1R confocal microscope (Nikon, Japan) to observe the fluorescence intensity of collagen type 1, FITC conjugate at excitation and emission wavelengths of 490 nm and 520 nm respectively. […]

[5] = Circular dichroism, secondary structure stability of BSA in microneedles; assay type: physicochemical; conditions: far UV CD 260-200 nm; microneedle release samples stored 3 days at 37° C.; degraded control: 75° C. or pH 2
Description: Circular dichroism (CD) spectroscopy was performed on the samples to evaluate the secondary structural characteristics of bovine serum albumin in the fabricated microneedles. The analysis was performed in a Jasco J-810 spectropolarimeter (Jasco, Tokyo, Japan) with a 1 mm light path quartz cell (Helima, Müllheim, Germany). Data was acquired at a bandwidth of 0.1 nm with a scan speed of 50 nm/min and a response time of 8 seconds. […] The microneedle release samples were first filtered using micro-centrifugal concentrators, (30 kDa cut-off) (Vivaspin 20, GE, UK) to separate the protein from polymer. Average value from triplicate measurements was used to plot the curve of molar ellipticity to wavelength. Molar ellipticity was calculated using the following equation: […]
The percentage of α-helix was calculated from the following equation
[formula] Tertiary Structure Stability

Compound: standard solution of BSA: standard BSA solution 0.026 mg/ml in purified water
emission maximum ([1]; standard BSA solution, scanned 300-400 nm): 338 nm

encapsulated drug released [2]: ~30%
Compound: CCN(CC)c1ccc2c(-c3ccccc3C(=O)O)c3ccc(=[N+](CC)CC)cc-3oc2c1.[Cl-] [rhodamine B, Rhodamine B]
log P [3]: 2.43

Compound: bovine collagen type 1, FITC conjugate: model macromolecule, MW=300 kDa, applied to microneedle pretreated skin
diffusion of collagen molecules after treatment of skin with microneedles [4]: greatly enhanced

Compound: O=C(O)CN(CC(=O)O)Cc1cc2c(cc1O)Oc1cc(O)c(CN(CC(=O)O)CC(=O)O)cc1C21OC(=O)c2ccccc21 [calcein]
log P [3]: −5.02

Compound: degraded BSA: BSA degraded by heating at 75° C. and under acidic conditions of pH 2
secondary structure / ellipticity by circular dichroism [5]: significantly lower ellipticity values | fluorescence ([1]; BSA denatured using heat or acid, emission 300-400 nm): did not show any fluorescence
